Biological target: soybean Hb (Lba) (Glycine max, UniProt P02238)
Experiment: Redness (a-value) of Lba solutions after exposure to 35 fc of light for 4 days
Settings: 35 fc light, 4 days, main effect over niacin amounts
Method: FIG. 2—Effect of pH and different molar ratios of niacin to soybean Hb on the redness of Lba solutions. Measurement after exposure to 35 fc of light for 4 days
100 grams of meat analog containing a 3:1 dose of niacin would provide 5.9 mg niacin; a 6:1 dose would provide 11.8 mg niacin.

Chain of soybean Hb (Lba) (P02238 whole entry): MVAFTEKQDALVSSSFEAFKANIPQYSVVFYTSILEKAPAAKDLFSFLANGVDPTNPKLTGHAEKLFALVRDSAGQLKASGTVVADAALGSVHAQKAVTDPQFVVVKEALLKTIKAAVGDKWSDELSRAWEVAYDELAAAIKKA

B1: Lba: plant Hb (soybean hemoglobin; Lba) added to meat analog (protein, UniProt P02238 2-144, looked up)
Leghemoglobin 3: VAFTEKQDALVSSSFEAFKANIPQYSVVFYTSILEKAPAAKDLFSFLANGVDPTNPKLTGHAEKLFALVRDSAGQLKASGTVVADAALGSVHAQKAVTDPQFVVVKEALLKTIKAAVGDKWSDELSRAWEVAYDELAAAIKKA
Redness (a-value) at day 4 (pH 6.0): 4.72a | Redness (a-value) at day 4 (pH 6.3): 4.62ab | Redness (a-value) at day 4 (pH 6.6): 4.45b | Redness (a-value) at day 4 (pH 7.0): 3.99c
